Measured values reported in article PMC10786891, “Massively parallel profiling of RNA-targeting CRISPR-Cas13d”.
Numbering of substitutions follows the chain as printed. Numbers in names are those of the source.

T1: EsCas13d, nuclease-dead (Eubacterium siraeum, UniProt B0MS50, R295A;H300A;R849A;H854A)
T1 sequence: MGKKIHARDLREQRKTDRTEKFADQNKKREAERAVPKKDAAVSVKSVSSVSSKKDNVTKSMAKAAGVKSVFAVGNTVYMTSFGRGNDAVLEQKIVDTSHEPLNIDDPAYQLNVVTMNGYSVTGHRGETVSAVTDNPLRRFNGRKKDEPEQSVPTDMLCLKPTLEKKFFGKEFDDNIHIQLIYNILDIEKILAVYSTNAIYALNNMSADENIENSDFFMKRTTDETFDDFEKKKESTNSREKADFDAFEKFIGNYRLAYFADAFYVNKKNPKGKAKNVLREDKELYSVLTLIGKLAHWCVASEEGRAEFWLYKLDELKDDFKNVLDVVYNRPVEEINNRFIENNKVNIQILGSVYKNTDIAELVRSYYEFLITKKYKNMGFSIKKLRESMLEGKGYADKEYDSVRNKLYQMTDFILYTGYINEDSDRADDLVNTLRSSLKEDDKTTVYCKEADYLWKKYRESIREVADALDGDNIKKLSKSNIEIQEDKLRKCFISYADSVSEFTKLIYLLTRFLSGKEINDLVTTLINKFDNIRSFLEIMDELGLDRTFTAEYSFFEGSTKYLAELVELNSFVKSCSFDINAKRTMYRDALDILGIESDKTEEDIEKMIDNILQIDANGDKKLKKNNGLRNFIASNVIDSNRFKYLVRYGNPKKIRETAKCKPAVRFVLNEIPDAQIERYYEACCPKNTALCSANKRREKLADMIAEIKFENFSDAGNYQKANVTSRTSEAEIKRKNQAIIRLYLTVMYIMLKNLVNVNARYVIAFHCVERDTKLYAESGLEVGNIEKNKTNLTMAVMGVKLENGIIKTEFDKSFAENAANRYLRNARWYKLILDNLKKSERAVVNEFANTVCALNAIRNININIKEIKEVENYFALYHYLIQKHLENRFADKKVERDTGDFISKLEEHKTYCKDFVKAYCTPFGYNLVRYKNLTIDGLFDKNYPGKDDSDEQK

B1: target 1 insC 3' of 12,insG 3' of 9 (mixed)
RNA 1: CACCCGUGCAAAAAUGCAGGGGUCUAAAACUGAGCGGAUAACCUCUCUAUGG
RNA 2: GGGAAUGGAUCCACAUCUACGAAUUCGUACCAUAGAGAGGCUUAGUCCGCUCACCGAGAUCGGAAGAGCACACGU
B2: target 1 G5A,U8A (mixed)
RNA 1: B1 RNA 1
RNA 2: GGGAAUGGAUCCACAUCUACGAAUUCGUACCAUAGAGAGGUUAACCACUCACCGAGAUCGGAAGAGCACACGU
B3: target 1 insU 3' of 22,insC 3' of 20 (mixed)
RNA 1: B1 RNA 1
RNA 2: GGGAAUGGAUCCACAUCUACGAAUUCGUACUCACUAGAGAGGUUAUCCGCUCACCGAGAUCGGAAGAGCACACGU
B4: target 1 insA 3' of 11,insU 3' of 2 (mixed)
RNA 1: B1 RNA 1
RNA 2: B1 RNA 2 with C41U, U42A, G45U, U46C, C48G, G49C, C50U, U51C, C52U
B5: target 1 A9U,A16G (mixed)
RNA 1: B1 RNA 1
RNA 2: B2 RNA 2 with A36G, A43U, A44U, A47G
B6: target 1 del5 (mixed)
RNA 1: B1 RNA 1
RNA 2: GGGAAUGGAUCCACAUCUACGAAUUCGUACCAUAGAGAGGUUAUCCCUCACCGAGAUCGGAAGAGCACACGU
B7: target 1 insG 3' of 21,insG 3' of 3 (mixed)
RNA 1: B1 RNA 1
RNA 2: GGGAAUGGAUCCACAUCUACGAAUUCGUACCGAUAGAGAGGUUAUCCGCUGCACCGAGAUCGGAAGAGCACACGU
B8: target 1 insG 3' of 8,insU 3' of 5 (mixed)
RNA 1: B1 RNA 1
RNA 2: B1 RNA 2 with C41U, U43A, A44U, U46C, C48G, G49U
B9: target 1 insG 3' of 22,insA 3' of 13 (mixed)
RNA 1: B1 RNA 1
RNA 2: B3 RNA 2 with U31G, C34U, U35A, A36G, G37A, A38G, G39A, A40G, G41A
B10: target 1 C6A,C22G (mixed)
RNA 1: B1 RNA 1
RNA 2: B2 RNA 2 with C30G, A44U, C46A, A47G
B11: target 1 insC 3' of 9,insA 3' of 6 (mixed)
RNA 1: B1 RNA 1
RNA 2: B1 RNA 2 with C41U, U43A, A44C, G45U, U46C, C48A
B12: target 1 C2G,A9U (mixed)
RNA 1: B1 RNA 1
RNA 2: B2 RNA 2 with A43U, A44U, A47G, C50G
B13: target 1 insU 3' of 20,insU 3' of 7 (mixed)
RNA 1: B1 RNA 1
RNA 2: B7 RNA 2 with G32A, A33U, C47U, G48C, C49G, U50C, G51U
B14: target 1 del7,del13 (mixed)
RNA 1: B1 RNA 1
RNA 2: GGGAAUGGAUCCACAUCUACGAAUUCGUACCAUAGAGAGUUAUCGCUCACCGAGAUCGGAAGAGCACACGU
B15: target 1 insG 3' of 22,insA 3' of 5 (mixed)
RNA 1: B1 RNA 1
RNA 2: B7 RNA 2 with C31G, G32C, C49A, U50C, G51U
B16: target 1 U8C,C21U (mixed)
RNA 1: B1 RNA 1
RNA 2: B2 RNA 2 with C31U, A44C, A47G
B17: target 1 G12U,C22U (mixed)
RNA 1: B1 RNA 1
RNA 2: B2 RNA 2 with C30U, G40U, A44U, A47G
B18: target 1 insA 3' of 15,insA 3' of 10 (mixed)
RNA 1: B1 RNA 1
RNA 2: B1 RNA 2 with G39A, C41G, G45A
B19: target 1 G15A (mixed)
RNA 1: B1 RNA 1
RNA 2: B2 RNA 2 with G37A, A44U, A47G
B20: target 1 C4U (mixed)
RNA 1: B1 RNA 1
RNA 2: B2 RNA 2 with A44U, A47G, C48U
B21: target 1 insC 3' of 14,insA 3' of 10 (mixed)
RNA 1: B1 RNA 1
RNA 2: B1 RNA 2 with G39C, C41G, G45A
B22: target 1 C7A,G17U (mixed)
RNA 1: B1 RNA 1
RNA 2: B2 RNA 2 with G35U, A44U, C45A, A47G
B23: target 1 A1G,G15A (mixed)
RNA 1: B1 RNA 1
RNA 2: B2 RNA 2 with G37A, A44U, A47G, A51G
B24: target 1 A1G,C2U (mixed)
RNA 1: B1 RNA 1
RNA 2: B2 RNA 2 with A44U, A47G, C50U, A51G
B25: target 1 insA 3' of 21,insU 3' of 4 (mixed)
RNA 1: B1 RNA 1
RNA 2: B7 RNA 2 with G32A, G51U
B26: target 1 insA 3' of 19,insU 3' of 17 (mixed)
RNA 1: B1 RNA 1
RNA 2: B3 RNA 2 with U31C, C32A, A33U, C34A, U35A, A36G, G37U
B27: target 1 insU 3' of 17,insG 3' of 16 (mixed)
RNA 1: B1 RNA 1
RNA 2: B1 RNA 2 with A36U, G37A, A38G, G40A, C41G, U42G, A44U, G45A
B28: target 1 C2U (mixed)
RNA 1: B1 RNA 1
RNA 2: B2 RNA 2 with A44U, A47G, C50U
B29: target 1 U8G,U11A (mixed)
RNA 1: B1 RNA 1
RNA 2: B2 RNA 2 with U41A, A44G, A47G
B30: target 1 del2,del16 (mixed)
RNA 1: B1 RNA 1
RNA 2: B14 RNA 2 with A36G, G37A, A38G, G45C, C46G, U47C, C48U
B31: target 1 C2U,U11A (mixed)
RNA 1: B1 RNA 1
RNA 2: B2 RNA 2 with U41A, A44U, A47G, C50U
B32: target 1 A1U,G15A (mixed)
RNA 1: B1 RNA 1
RNA 2: B2 RNA 2 with G37A, A44U, A47G, A51U
B33: target 1 C2U,C21U (mixed)
RNA 1: B1 RNA 1
RNA 2: B2 RNA 2 with C31U, A44U, A47G, C50U

target: T1, EsCas13d, nuclease-dead; assay: crRNA (strand 1, pre-loaded); Mg2+; 40 mM Tris-HCl pH 7.5, 150 mM NaCl, 6 mM MgCl2, 1 mM DTT, 0.1% Tween-20, 0.2 mg/ml BSA; 25 C; 10 min per concentration, then washed; settings: tags: His6-TwinStrep-SUMO cleaved; N-terminal SNAP kept (SNAP-Surface 488); label: 3' end held by stalled T7 RNA polymerase

Binder	Kd [nM]
B1	24 ± 1.2
B2	45 ± 4
B3	18.3 ± 1.4
B4	22.2 ± 1.1
B5	67 ± 9
B6	10.4 ± 0.5
B7	43 ± 6
B8	15.7 ± 1.1
B9	11.5 ± 0.7
B10	39 ± 5
B11	14 ± 0.4
B12	8.7 ± 1
B13	28.6 ± 1.5
B14	15.6 ± 1.3
B15	23.1 ± 2.2
B16	9.6 ± 0.5
B17	21.7 ± 2.8

Binder	Kd [nM]
B18	9.7 ± 0.6
B19	10.8 ± 0.4
B20	30 ± 4
B21	55 ± 8
B22	34 ± 6
B23	11.1 ± 0.5
B24	8.7 ± 0.7
B25	12.5 ± 1
B26	~38
B27	44 ± 5
B28	9.7 ± 0.7
B29	27.6 ± 2.2
B30	82 ± 18
B31	29.5 ± 3.5
B32	11.2 ± 0.7
B33	8.2 ± 0.8
